We go through 140 substances from the supplement of paper PMC12042874.

The nature of this data set: amyloid nucleation score (Sup35N fusion, yeast selection) (log enrichment); library NNK2; higher = more nucleation; inactive = no reads after selection. A digest of the protocol:
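The nucleation score is a DiMSum log enrichment of output over input reads, centred on the mode score of non-aggregating sequences. Sequences under 100 input reads were excluded, and reads came from Illumina sequencing of plasmid inserts. Psi-negative yeast expressing Sup35N fused to peptides of 20 random codons were induced with 100 μM copper sulfate for 24 hours and grown 7 days at 30°C on medium lacking adenine and uracil. Random libraries had three technical output replicates.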

± gives the uncertainty stated by the source.

For the substance AGSSSVNQITCLH, the amyloid nucleation score is -0.22 ± 1.

In the case of ILRCLNLYMRSIMRVELSIQ, the amyloid nucleation score came out at 0.461 ± 0.8.

For APFLGRLEVRV, the amyloid nucleation score came out at 0.563 ± 0.37.

FTFDMVSSKSQYMNIDRNVR: the amyloid nucleation score is -0.996 ± 0.78.

On to SSQCRDVGEAGNHWCLSGSG, for which the amyloid nucleation score is 2.8 ± 0.14.

For the substance SKRDGVSSMIM, the amyloid nucleation score stood at 4.25 ± 0.069.

Consider TGPGSFFRRSGDTHLYSRDG, for which the amyloid nucleation score entry was “inactive”.

For KCCVENCRWHGRLSSLLFAM, the amyloid nucleation score was determined as 0.576 ± 0.34.

Consider YFGFGKSGDYHHSWKRWLPR, for which the amyloid nucleation score is -0.511 ± 0.35.

For the substance NIDICDVWFMNCLYIILVAQ, the amyloid nucleation score is 5.192 ± 0.031.

In turn, VLSMVVDKCLCTMCIQAIVL displayed an amyloid nucleation score of 9.711 ± 0.058.

For the substance LYLHKDHIDVNFNHMVKGLT, the amyloid nucleation score is -0.263 ± 1.1.

YNCCVKISVSM: the amyloid nucleation score was determined as 5.481 ± 0.042.

Turning to VPSQRNWFC, the amyloid nucleation score was 0.007 ± 0.63.

For the substance LWVCSCSNALTNGLWGAVSL, the amyloid nucleation score is 5.151 ± 0.036.

GKCFIWCSMGIWLGVCDQSA showed an amyloid nucleation score of 3.59 ± 0.089.

GTMQFIVICNSDVFVSWLPN came in with an amyloid nucleation score of 7.253 ± 0.071.

With LIYPANDANNSTR, the amyloid nucleation score is -0.616 ± 0.64.

The substance MSRKFMGVFCTSSRGSLPRG showed an amyloid nucleation score of 0.653 ± 0.47.

Consider LHWFMVEDH, for which the amyloid nucleation score amounted to 0.19 ± 0.42.

Take VKTRTFRTCRSHRIEFMDWV: the amyloid nucleation score is -0.064 ± 1.1.

For FGYAVVQRYYKWWIAMNTQA, the amyloid nucleation score is -0.04 ± 0.42.

Substance VGPMEGGYPGVAQLLGEKRN gave an amyloid nucleation score of 2.3 ± 0.2.

On to FRYFDWCIFYSYLLVCY, for which the amyloid nucleation score was -1.96 ± 1.1.

Turning to NLYTYAVKAVSYSMTGVFIS, the amyloid nucleation score is -0.114 ± 1.

Regarding PFSFRLSGINSPPVISVA, the amyloid nucleation score is -1.16 ± 0.41.

On to MTIVCRWR, for which the amyloid nucleation score is 3.04 ± 0.16.

The substance CCWAVWDLRGFTRGWRLRRG displayed an amyloid nucleation score of 0.509 ± 0.16.

On to EGDMLILEF, for which the amyloid nucleation score is -0.474 ± 1.

With TILDIVLIIPAKVVHKEERR, the amyloid nucleation score is -0.093 ± 0.41.

As to LSLALDRQELAVHLFVLTCY, the amyloid nucleation score was found to be 0.829 ± 0.57.

ILGDRSRSS gave an amyloid nucleation score of 0.388 ± 0.62.

SMKHRHSRMVTFGVLV came in with an amyloid nucleation score of 0.163 ± 0.28.

Turning to VRANLGAGFRFKSETGDAS, the amyloid nucleation score was determined as 0.861 ± 0.14.

The substance RYYGRPFRVLYRWSVREYYT returned an amyloid nucleation score of 4.395 ± 0.04.

Consider ILANFFCGDRNCL, for which the amyloid nucleation score amounted to 7.128 ± 0.036.

VEALSISMQLYYRSLVAG: the amyloid nucleation score is -0.066 ± 1.

Substance TLLFHTRSYVYICVLVWKQH gave an amyloid nucleation score of 0.049 ± 0.8.

As for RGRCNVVSSLTFTIRSLWTV, the amyloid nucleation score was determined as 1.59 ± 0.13.

On to VGEYLCEPATLY, for which the amyloid nucleation score is -0.018 ± 1.1.

For CWDEQLQPS, the amyloid nucleation score turned out to be 0.744 ± 0.45.

With GCDTRHSPLVSNALGLAIAS, the amyloid nucleation score is -0.052 ± 0.49.

The substance IYLHFGNLLNYFETRRTVFR had an amyloid nucleation score of 6.19 ± 0.087.

For the substance YAPLSTDPYILVHCIRPRLA, the amyloid nucleation score is -0.558 ± 1.

As to IFDVNCPS, the amyloid nucleation score is -0.196 ± 1.1.

Regarding MRYEFVLFLRFRGSDTKGRD, the amyloid nucleation score is -0.124 ± 0.33.

For MYSLR, the amyloid nucleation score entry was “inactive”.

The substance SSYSDLIQLNSNWMWCICLL showed an amyloid nucleation score of 8.101 ± 0.06.

With VFFNLDSWSSKVCDSKLMVM, the amyloid nucleation score was -0.373 ± 0.54.

Regarding PFDFAGA, the amyloid nucleation score was 2.91 ± 0.087.

EYTIFTDLLLYDFKWLEYVW: the amyloid nucleation score was found to be 0.561 ± 0.62.

In turn, VSLKFLQGGAKDLRWSCGGE showed an amyloid nucleation score of 1.78 ± 0.23.

On to DWCYYGG, for which the amyloid nucleation score entry is “inactive”.

For IVGHM, the amyloid nucleation score is -0.5 ± 0.21.

On to QILSRGFAPWT, for which the amyloid nucleation score is -1.54 ± 0.78.

On to HMEKWCSSTMSRLLSVQLAK, for which the amyloid nucleation score amounted to 0.771 ± 0.29.

In turn, PCGLIV returned an amyloid nucleation score of 0.22 ± 0.63.

SRIGVLPDNVDTSAKLAYRL returned an amyloid nucleation score of 6.95 ± 0.078.

Turning to SFAMSRHLQPGGNEQFRM, the amyloid nucleation score came out at 1.16 ± 0.57.

Take LVNTYYAHVWWLLVGIMMLS: the amyloid nucleation score is -0.645 ± 1.1.

Take RTHCSMSYQSRVVVDWLLQK: the amyloid nucleation score was found to be 4.18 ± 0.087.

Substance NLWFSHDITYHYTYFDRSRA came in with an amyloid nucleation score of 4.52 ± 0.087.

For DVIVRLFVPYLVV, the amyloid nucleation score was -0.199 ± 0.44.

GVRDVIQL gave an amyloid nucleation score of 2.05 ± 0.26.

Take DNDYIYRYPWP: the amyloid nucleation score was -0.288 ± 1.1.

As to FGIQGWLFSNSWFLILVFFL, the amyloid nucleation score result is “inactive”.

Consider AVPGVC, for which the amyloid nucleation score is 0.72 ± 0.26.

On to VPNYLCGDTLPEYYETPPDH, for which the amyloid nucleation score was found to be 0.224 ± 0.4.

Substance IDYVGYMKWMMV registered an amyloid nucleation score of 0.016 ± 0.38.

Take YYAGLVTSDWNTRSLGGMCE: the amyloid nucleation score is -0.506 ± 1.

The substance TRSYQLLLVSLVAGNFVE registered an amyloid nucleation score of 1.5 ± 0.27.

With ALCWVGSYSACLRIFKPSRM, the amyloid nucleation score was 0.521 ± 0.41.

Regarding LNMVMLICNLWDVPHPRYLP, the amyloid nucleation score came to 5.14 ± 0.052.

In the case of FRPHQVV, the amyloid nucleation score entry was “inactive”.

On to FGFYFLVSGLCRCDLPFHVL, for which the amyloid nucleation score was -0.757 ± 0.76.

The substance EVSNRCRRLSTRRVHSVLVG came in with an amyloid nucleation score of 1.13 ± 0.25.

On to CDVGFSHRYSSNYDKTWDMI, for which the amyloid nucleation score was -0.7 ± 0.78.

For the substance FSGLGDCEVMYVFVNNRLGW, the amyloid nucleation score is -0.699 ± 1.

For the substance HRYEKSAHTVVWSIMVFS, the amyloid nucleation score was 0.033 ± 0.45.

With YRISMTAWSGRLSG, the amyloid nucleation score was 4.03 ± 0.043.

Take MGSGYSQCAGRGWARVERLG: the amyloid nucleation score stood at 1.44 ± 0.3.

The substance WSEYRFRHIPKLKKCYQVD came in with an amyloid nucleation score of 0.175 ± 0.32.

As to AMVWGSIFSRKSQGLSHSSG, the amyloid nucleation score entry was “inactive”.

With FCVIAQYAQVPMSCWGWLES, the amyloid nucleation score was -0.191 ± 1.1.

Regarding IDSADVSIVRCKTQVRRIMR, the amyloid nucleation score stood at 5.62 ± 0.063.

Substance LMFWGCSGLRWLVVLSDNKA yielded an amyloid nucleation score of 3.8 ± 0.097.

As to DFRCADCLKINFSIVQSK, the amyloid nucleation score came out at 7.257 ± 0.05.

With SVFYHLYSHWIFIVCTNTRR, the amyloid nucleation score is -0.414 ± 0.43.

GGPSGQFCYPGGNKGYCN: the amyloid nucleation score is -0.724 ± 1.

LYTKRSKY: the amyloid nucleation score was -0.161 ± 1.1.

With GWCVHSKKDGKYCRSYTRQF, the amyloid nucleation score was -0.136 ± 0.23.

For the substance IEGTVRYYPVSNFT, the amyloid nucleation score entry is “inactive”.

Consider VNNGLPDCFSLRYAVHPMRL, for which the amyloid nucleation score is -0.526 ± 0.64.

Take QSRSMNRHNWHTFMLWAWER: the amyloid nucleation score is -0.695 ± 0.61.

Turning to LVNVM, the amyloid nucleation score amounted to 1.39 ± 0.095.

For GIIDMSRLVMHQITEPLLSQ, the amyloid nucleation score worked out at 0.092 ± 0.32.

Regarding TVSRTVCVASYCLSSEKTSG, the amyloid nucleation score is -0.899 ± 0.31.

In turn, LQRSHSWTQLPLCTSRLRLL returned an amyloid nucleation score of 0.294 ± 1.1.

Consider HWWLIIRDLKASRIDVRQWE, for which the amyloid nucleation score result was “inactive”.

Regarding LVALVLPGRINENKYVCGD, the amyloid nucleation score is -0.588 ± 0.49.

TTNSFINLVYMNMHK displayed an amyloid nucleation score of 6.63 ± 0.075.

For the substance SNSRKMCDMGKDDNGYKGTH, the amyloid nucleation score is -0.483 ± 1.

Take LHFSICMPTGCDVPPGDKGG: the amyloid nucleation score entry is “inactive”.

Substance QSVGATNLLG showed an amyloid nucleation score of 0.501 ± 0.34.

As to PREFGRLL, the amyloid nucleation score was -0.757 ± 0.35.

VNGWDWQRYLRILKCFVVY yielded an amyloid nucleation score of 0.615 ± 0.36.

As for HHLLPWGWRPVYGSRLRCTL, the amyloid nucleation score was 4.23 ± 0.049.

Regarding IYEQPG, the amyloid nucleation score amounted to 0.012 ± 0.54.

LRSPWLF: the amyloid nucleation score was -0.687 ± 0.79.

For DMSNQFYELVAMILMNST, the amyloid nucleation score is -0.823 ± 0.32.

For the substance LLLNNLVYFSLRVYLLNFCL, the amyloid nucleation score was -2.07 ± 0.62.

Consider TGPIWLCYACAWTNTYTPAE, for which the amyloid nucleation score worked out at 9.357 ± 0.055.

In the case of VLNIFVT, the amyloid nucleation score stood at 7.248 ± 0.061.

For SWITPMRHLFSNHSLGLNAY, the amyloid nucleation score was -0.298 ± 0.43.

Take WFCVRVA: the amyloid nucleation score was -0.13 ± 0.37.

The substance SVNWSFRSMNIFH came in with an amyloid nucleation score of 3.45 ± 0.055.

With MNGIFVNLKSKIRTFCRSVY, the amyloid nucleation score is 2.67 ± 0.11.

With VNSEPDTLEGNENWYMGTRC, the amyloid nucleation score was -0.125 ± 0.49.

Regarding LLSKFF, the amyloid nucleation score result is “inactive”.

Consider LDITVCMRFKAPAIIWAYYF, for which the amyloid nucleation score is -0.657 ± 0.48.

TVSVNLYNFVLQTSY returned an amyloid nucleation score of 4.55 ± 0.069.

NYWRDGQNDLGWLSLANFFK: the amyloid nucleation score entry is “inactive”.

On to LPDIFLSVYKLLVYKSLLPA, for which the amyloid nucleation score is 0.073 ± 0.53.

VLFSRTTSEEDKRSIISMNN had an amyloid nucleation score of 2.17 ± 0.18.

On to NIKSYVGYRNHFRVSLV, for which the amyloid nucleation score entry is “inactive”.

KVTSRTTGMIVSFFMPCLEM yielded an amyloid nucleation score of 5.97 ± 0.072.

Consider ICILDYND, for which the amyloid nucleation score was -1.15 ± 0.76.

In the case of GRSGFYCIHKMSVDTFIQKA, the amyloid nucleation score stood at 4.27 ± 0.074.

The substance MAYSGKVLFHVSDIVVWGKL showed an amyloid nucleation score of 5.9 ± 0.086.

As to RYINQ, the amyloid nucleation score was -0.481 ± 1.1.

NLYSLPQEDRSLNDEKGG had an amyloid nucleation score of 0.121 ± 0.49.

Take YGFASFSLYDYYLLVCSMFI: the amyloid nucleation score result is “inactive”.

In the case of KPDTMNFWVVLALNFDLGRT, the amyloid nucleation score stood at 2.77 ± 0.099.

MSAPRMEQSWEHQQQRDHTC had an amyloid nucleation score of 0.661 ± 0.33.

Consider CWNDSRMCR, for which the amyloid nucleation score was -0.387 ± 0.26.

The substance AEADGYLFSALHTPYWTSGV registered an amyloid nucleation score of 0.294 ± 0.64.

For SVYDTKHLLNLLDSAVISNH, the amyloid nucleation score was -0.481 ± 0.76.

As to LCNMHIMRFNM, the amyloid nucleation score was -1.07 ± 1.1.

In turn, TCSRDVFGWTVLGTGLPPLR had an amyloid nucleation score of 0.878 ± 0.32.

Take WQSAEEWMLPYGVNMVVSWA: the amyloid nucleation score worked out at 0.483 ± 0.46.
